B1: BS69CC-MYND: residues 440–562 of BS69/ZMYND11, tandem coiled-coil-MYND domains (protein, UniProt Q15326 440-562, looked up, fragment)
chain: TKKLSASSPRMLHRSTQTTNDGVCQSMCHDKYTKIFNDFKDRMKSDHKRETERVVREALEKLRSEMEEEKRQAVNKAVANMQGEMDRKCKQVKEKCKEEFVEEIKKLATQHKQLISQTKKKQW
modifications: coiled-coil-MYND domain FLAG tag
notes: residues 440–562 of BS69/ZMYND11, tandem coiled-coil-MYND domains
B2: BS69: emerging tumor suppressor, Adenovirus protein E1A and EBNA2-interacting protein (protein, UniProt Q15326 1-602, looked up)
Zinc finger MYND …: MARLTKRRQADTKAIQHLWAAIEIIRNQKQIANIDRITKYMSRVHGMHPKETTRQLSLAVKDGLIVETLTVGCKGSKAGIEQEGYWLPGDEIDWETENHDWYCFECHLPGEVLICDLCFRVYHSKCLSDEFRLRDSSSPWQCPVCRSIKKKNTNKQEMGTYLRFIVSRMKERAIDLNKKGKDNKHPMYRRLVHSAVDVPTIQEKVNEGKYRSYEEFKADAQLLLHNTVIFYGADSEQADIARMLYKDTCHELDELQLCKNCFYLSNARPDNWFCYPCIPNHELVWAKMKGFGFWPAKVMQKEDNQVDVRFFGHHHQRAWIPSENIQDITVNIHRLHVKRSMGWKKACDELELHQRFLREGRFWKSKNEDRGEEEAESSISSTSNEQLKVTQEPRAKKGRRNQSVEPKKEEPEPETEAVSSSQEIPTMPQPIEKVSVSTQTKKLSASSPRMLHRSTQTTNDGVCQSMCHDKYTKIFNDFKDRMKSDHKRETERVVREALEKLRSEMEEEKRQAVNKAVANMQGEMDRKCKQVKEKCKEEFVEEIKKLATQHKQLISQTKKKQWCYNCEEEAMYHCCWNTSYCSIKCQQEHWHAEHKRTCRRKR

Legend:
[1] = test system: EBNA2; assay: Co-immunoprecipitation of EBNA2 with flag-BS69CC-MYND in BJAB cells; format: cell-based, Epstein-Barr virus; settings: anti-flag M2 IP, Western blot
Excerpt: To address whether the BS69 C-terminal domain, if expressed, interacts with EBNA2 in vivo, we ectopically co-expressed flag-tagged wild-type, Q546A, or Q546A/W550A BS69CC-MYND with EBNA2 in BJAB cells, followed by immunoprecipitation using anti-flag M2-conjugated sepharose and Western blotting with antibodies against EBNA2 and M2, respectively. […] In addition, the immunofluorescence (IF) image pointed to a reduction of large amount of BS69 expression in EBV infected B cells at 5 dpi, confirming the barely low expression levels of BS69 shown in Fig 4B.
Co-immunoprecipitation, chromatin immunoprecipitation (ChIP), and western blot analyses
The transfection-mediated co-immunoprecipitation (Co-IP) assay was employed to identify the physical interaction of EBNA2 with BS69CC-MYND using EBV-negative B lymphoma cells (BJAB). Cells were co-transfected with the expression plasmids of EBNA2 (E2) and flag- BS69CC-MYND wild type, Q546A mutant (Q546A), or Q546A/W550A mutant (Q546A/W550A) and subjected to IP analysis using M2-conjugated sepharose (Sigma). […] The proteins were detected and visualized using an ECL detection kit (Millipore). […] The protein levels of endogenous BS69 in the obtained cell lines were determined by Western blot using BS69 antibody (Santa Cruz biotechnology). […] The proteins were detected and visualized using an ECL detection kit (Millipore).

[2] = test system: LMP1-Luc reporter, EBNA2-mediated transcriptional activation; assay: LMP1-Luc reporter assay (EBNA2-mediated transcription) in BJAB cells; format: cell-based, Epstein-Barr virus; settings: 10 μg EBNA2 vector, 5 μg flag-BS69CC-MYND plasmid, 5 μg reporter
Excerpt: (§1) Cell culture and reporter gene assays for EBNA2-mediated transcription activation
(§2) The BS69CC-MYND dual domain, wild-type or the Q546A mutant, were inserted into a pCBS/FLAG mammalian expression vector [54], in which the BS69 fragments are preceded by a FLAG-tag. In the case of the Q546A/W550A BS69CC-MYND expression plasmid, the flanking DNA fragment was subcloned into the pSG5-Flag vector [55]. The EBNA2 expression vector harboring PXLXP1 or PXLXP2 mutations was generated by carrying out the PCR-based mutagenesis protocol provided by the manufactory (Stratagene). In each case, the codons of two prolines were replaced with the codons of alanine simultaneously. For EBNA2-dependent transcription reporter assays, 10 μg of the expression vector of EBNA2 (E2), 5 μg flag-BS69CC- MYND wild type, or Q546A plasmid, and 5 μg LMP1-Luc or Cp-Luc reporter plasmid, and 1 μg CMV-βGal control plasmid were co-transfected into BJAB cells following the protocol as described previously. For the parallel control, 10 μg EBNA1 expression plasmid and 5 μg OriP-Luc reporter plasmid were used instead. Luciferase and β-Gal activities were assayed by Orion L (Berthold). A DNA fragment encoding residues 375–465 of EBNA2 from EBV W91 strain [49] containing CR7 and CR8 of EBNA2 were inserted into pCD-Gal4(1–147) vector to generate pCD-Gal4-EBNA2(375–465), which encodes a GAL4-EBNA2 fusion protein. […]

[3] = test system: Cp-Luc reporter, EBNA2-mediated transcriptional activation; assay: Cp-Luc reporter assay (EBNA2-mediated transcription) in BJAB cells; format: cell-based, Epstein-Barr virus; settings: 10 μg EBNA2 vector, 5 μg flag-BS69CC-MYND plasmid, 5 μg reporter
Excerpt: as §1, §2

[4] = test system: G5-TK-Luc reporter, Gal4-EBNA2 transcriptional activation; assay: G5-TK-Luc reporter assay with Gal4-EBNA2 in HeLa cells; format: cell-based; settings: 10 ng BS69CC-MYND expression vector, relative to no Gal4 activator (set to 1), means of minimum 3 independent experiments each in triplicates
Excerpt: as §1
The BS69CC-MYND dual domain, wild-type or the Q546A mutant, were inserted into a pCBS/FLAG mammalian expression vector [54], in which the BS69 fragments are preceded by a FLAG-tag. In the case of the Q546A/W550A BS69CC-MYND expression plasmid, the flanking DNA fragment was subcloned into the pSG5-Flag vector [55]. The EBNA2 expression vector harboring PXLXP1 or PXLXP2 mutations was generated by carrying out the PCR-based mutagenesis protocol provided by the manufactory (Stratagene). In each case, the codons of two prolines were replaced with the codons of alanine simultaneously. […]
Supplementary file ppat.1005414.s003.tif: S3 Fig In vivo transcription assays of G5-TK-Luc reporter gene. (A) The expression of Flag-tagged wild-type or Q546A BS69CC-MYND in HeLa cells was analyzed by Western blotting using anti-flag M2 monoclonal antibody. […] (B) Relative transcription activation by GAL4 DBD, Gal4-EBNA2 and Gal4-VP16 was analyzed in transfected HeLa cells in the absence or presence of 10 ng expression vector for wild-type BS69CC-MYND or its Q546A mutant. […]

[5] = test system: LMP1-DNA (LMP1 promoter); assay: ChIP at LMP1 promoter DNA in transfected BJAB cells; format: cell-based, Epstein-Barr virus; settings: M2 ChIP
Excerpt: To determine whether BS69CC-MYND is able to associate with EBNA2 target promoters through protein-protein interactions, we performed Chromatin Immunoprecipitation (ChIP) assays using BJAB cells, in which flag-tagged wild-type, Q546A, or […] BS69CC-MYND was co-transfected with or without EBNA2 expression vector and a reporter plasmid containing the LMP1 promoter, LMP1-Luc. […] On the other hand, an EBNA2 ChIP brought down ~13% of LMP1-DNA, consistent with the fact that LMP1 is one of the target sites of EBNA2 [35, 36].
5x10^4/per 100 μl primary B cells were cultured in RPMI 1640 supplemented with 15% fetal calf serum (FCS), 2 mM L-glutamine, and penicillin/streptomycin, and aliquoted into a 96-well plate. […] Cells were collected at 0, 1, 3, 5, and 7 days of post-infection (dpi) and BS69 mRNA expression in virus or mock -infected B cells were determined as the relative expression levels versus GAPDH by quantitative reverse transcription real time PCR (qRT-PCR). […] The amount of ChIPed DNA was quantified by real time PCR and represented as % of input DNA. […]
The transfection-mediated co-immunoprecipitation (Co-IP) assay was employed to identify the physical interaction of EBNA2 with BS69CC-MYND using EBV-negative B lymphoma cells (BJAB). […] The proteins were detected and visualized using an ECL detection kit (Millipore). […]

[6] = test system: EBNA1-mediated transcriptional activation of OriP-Luc reporter; assay: OriP-Luc reporter assay (EBNA1-mediated transcription); format: cell-based, Epstein-Barr virus; settings: 10 μg EBNA1 expression plasmid, 5 μg OriP-Luc reporter
Excerpt: as §1, §2

[7] = test system: EBNA2; assay: Confocal immunofluorescence of EBNA2 and BS69 in EBV-infected B cells; format: cell-based, Epstein-Barr virus; settings: EBV infected B cells at 1 and 3 dpi
Method: 5x10^4/per 100 μl primary B cells were cultured in RPMI 1640 supplemented with 15% fetal calf serum (FCS), 2 mM L-glutamine, and penicillin/streptomycin, and aliquoted into a 96-well plate. 100 μL previously purified EBV [52] or PBS (mock infection) was utilized as the inoculum. Cells were collected at 0, 1, 3, 5, and 7 days of post-infection (dpi) and BS69 mRNA expression in virus or mock -infected B cells were determined as the relative expression levels versus GAPDH by quantitative reverse transcription real time PCR (qRT-PCR). For Western blot analysis, a total of 5x10^5 B cells with EBV infection were collected at 0, 1, 4, and 7 dpi, respectively. The primers for BS69 are […] (F) and […] (R), whereas the primers for GAPDH internal control are […] (F) and […] (R). The primers for chromatin immunoprecipitati on assays of the LMP1 promoter and GAPDH promoter control have been described previously. The amount of ChIPed DNA was quantified by real time PCR and represented as % of input DNA. For Immunofluorescence analysis (IFA), cells were fixed in 2% paraformaldehyde (Sigma) and subjected to an immunostaining protocol using antibodies for BS69 (Santa Cruz), and EBNA2 (Santa Cruz). […]

[8] = test system: cancer cell growth; settings: in vitro and in vivo; cited from earlier work
Excerpt: BS69 (ZMYND11) is an emerging tumor suppressor [19–21] that was originally identified as the Adenovirus protein E1A and EBNA2-interacting protein [22, 23]. […] BS69 contains, in addition to a C-terminal MYND (MYeloid translocation protein 8, Nervy and DEAF-1) domain, an N-terminal Plant Homo Domain (PHD) zinc finger, a Bromo domain and a PWWP domain.

Row | Molecule | EBNA2 co-precipitation [1] | relative transcriptional activation by EBNA2 in presence of BS69CC-MYND, LMP1-Luc [2] | relative transcriptional activation by EBNA2 in presence of BS69CC-MYND, Cp-Luc [3] | activation of G5-TK-Luc by Gal4-EBNA2 in presence of BS69CC-MYND [4] | ChIPed LMP1-DNA ([5]; absence of EBNA2 (similar to IgG negative control)) | ChIPed LMP1-DNA ([5]; presence of EBNA2, % of input DNA) | suppression of EBNA1-mediated transcriptional activation of OriP-Luc [6] | colocalization of EBNA2 and BS69 [7] | effect of BS69 overexpression on cancer cell growth [8]
1 | B1 | EBNA2 co-precipitates with wild-type flag-tagged BS69CC-MYND | ≤ 2 fold | ≤ 2 fold | less than 4 fold | 7–8 % over input DNA | ~ 17% | – | – | –
2 | B2 | – | – | – | – | – | – | failed to suppress | colocalization of EBNA2 and BS69 appeared | suppresses cancer cell growth both in vitro and in vivo

Reference: article PMC4742278, “BS69/ZMYND11 C-Terminal Domains Bind and Inhibit EBNA2” (PLoS Pathogens, 2016)
